Experimental data from paper PMC12678768.

Biological target: HTLV-1 CA C-terminal domain, HTLV-1 CACTD (A128-L214) (Human T-cell Leukaemia Virus type 1, subtype C, isolate Aus-GM)
Experiment: SEC; HTLV-1 CACTD on HiLoad 26/600 Superdex 75 pg, 20 mM HEPES (pH 7.0), 40 mM NaCl; purified as a dimer (Supplementary Fig. 3d)

With “HTLV-1 CA C-terminal domain, HTLV-1 CACTD (A128-L214) (domain or fragment)” the stoichiometry N was 2.
